Reference: patent publication US20240067696A1 (ZEALAND PHARMA A S, published 2024)
Non-standard residues stand in square brackets, D forms with d. Dab = NCC[C@H](N)C(=O)O; Aib = CC(C)(N)C(=O)O

molecular target: human glucagon receptor (human, UniProt P47871 26-477); experiment: cell-based or functional assay
Sequence (P47871 26-477): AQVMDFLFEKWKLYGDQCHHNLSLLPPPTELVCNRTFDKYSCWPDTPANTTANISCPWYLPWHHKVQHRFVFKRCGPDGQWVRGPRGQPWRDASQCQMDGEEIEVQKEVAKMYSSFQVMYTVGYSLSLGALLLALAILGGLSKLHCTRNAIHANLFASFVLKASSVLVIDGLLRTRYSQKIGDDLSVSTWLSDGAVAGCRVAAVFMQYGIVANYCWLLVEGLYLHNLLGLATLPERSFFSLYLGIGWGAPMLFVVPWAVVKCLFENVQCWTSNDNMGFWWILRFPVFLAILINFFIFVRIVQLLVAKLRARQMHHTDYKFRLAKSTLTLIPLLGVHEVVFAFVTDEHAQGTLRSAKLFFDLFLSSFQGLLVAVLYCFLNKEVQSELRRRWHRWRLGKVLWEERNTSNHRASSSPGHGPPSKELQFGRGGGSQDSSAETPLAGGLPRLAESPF

| Binder | GCG-R EC50 in vitro [nM] (cAMP, AlphaScreen, HEK293 cells expressing human Glucagon-R) |
| --- | --- |
| H-HS[Dab](Ac)GTFTSDYSKYLD[Aib]ARAESFVKWLEST-OH (SMILES CC(=O)NCC[C@H](NC(=O)[C@H](CO)NC(=O)[C@@H](N)Cc1c[nH]cn1)C(=O)NCC(=O)N[C@H](C(=O)N[C@@H](Cc1ccccc1)C(=O)N[C@H](C(=O)N[C@@H](CO)C(=O)N[C@@H](CC(=O)O)C(=O)N[C@@H](Cc1ccc(O)cc1)C(=O)N[C@@H](CO)C(=O)N[C@@H](CCCCN)C(=O)N[C@@H](Cc1ccc(O)cc1)C(=O)N[C@@H](CC(C)C)C(=O)N[C@@H](CC(=O)O)C(=O)NC(C)(C)C(=O)N[C@@H](C)C(=O)N[C@@H](CCCNC(=N)N)C(=O)N[C@@H](C)C(=O)N[C@@H](CCC(=O)O)C(=O)N[C@@H](CO)C(=O)N[C@@H](Cc1ccccc1)C(=O)N[C@H](C(=O)N[C@@H](CCCCN)C(=O)N[C@@H](Cc1c[nH]c2ccccc12)C(=O)N[C@@H](CC(C)C)C(=O)N[C@@H](CCC(=O)O)C(=O)N[C@@H](CO)C(=O)N[C@H](C(=O)O)[C@@H](C)O)C(C)C)[C@@H](C)O)[C@@H](C)O) [Compound 32] | 0.0093 nM |
| H-HSQGTFTSDYSKYLD[Aib]ARAEKFVEWLEST-OH (SMILES CC(C)C[C@H](NC(=O)[C@H](Cc1c[nH]c2ccccc12)NC(=O)[C@H](CCC(=O)O)NC(=O)[C@@H](NC(=O)[C@H](Cc1ccccc1)NC(=O)[C@H](CCCCN)NC(=O)[C@H](CCC(=O)O)NC(=O)[C@H](C)NC(=O)[C@H](CCCNC(=N)N)NC(=O)[C@H](C)NC(=O)C(C)(C)NC(=O)[C@H](CC(=O)O)NC(=O)[C@H](CC(C)C)NC(=O)[C@H](Cc1ccc(O)cc1)NC(=O)[C@H](CCCCN)NC(=O)[C@H](CO)NC(=O)[C@H](Cc1ccc(O)cc1)NC(=O)[C@H](CC(=O)O)NC(=O)[C@H](CO)NC(=O)[C@@H](NC(=O)[C@H](Cc1ccccc1)NC(=O)[C@@H](NC(=O)CNC(=O)[C@H](CCC(N)=O)NC(=O)[C@H](CO)NC(=O)[C@@H](N)Cc1c[nH]cn1)[C@@H](C)O)[C@@H](C)O)C(C)C)C(=O)N[C@@H](CCC(=O)O)C(=O)N[C@@H](CO)C(=O)N[C@H](C(=O)O)[C@@H](C)O) [Compound 34] | 0.028 nM |
| H-HSQGTFTSDYSKYLD[Aib]ARAEEFVSWLEKT-OH (SMILES CC(C)C[C@H](NC(=O)[C@H](Cc1c[nH]c2ccccc12)NC(=O)[C@H](CO)NC(=O)[C@@H](NC(=O)[C@H](Cc1ccccc1)NC(=O)[C@H](CCC(=O)O)NC(=O)[C@H](CCC(=O)O)NC(=O)[C@H](C)NC(=O)[C@H](CCCNC(=N)N)NC(=O)[C@H](C)NC(=O)C(C)(C)NC(=O)[C@H](CC(=O)O)NC(=O)[C@H](CC(C)C)NC(=O)[C@H](Cc1ccc(O)cc1)NC(=O)[C@H](CCCCN)NC(=O)[C@H](CO)NC(=O)[C@H](Cc1ccc(O)cc1)NC(=O)[C@H](CC(=O)O)NC(=O)[C@H](CO)NC(=O)[C@@H](NC(=O)[C@H](Cc1ccccc1)NC(=O)[C@@H](NC(=O)CNC(=O)[C@H](CCC(N)=O)NC(=O)[C@H](CO)NC(=O)[C@@H](N)Cc1c[nH]cn1)[C@@H](C)O)[C@@H](C)O)C(C)C)C(=O)N[C@@H](CCC(=O)O)C(=O)N[C@@H](CCCCN)C(=O)N[C@H](C(=O)O)[C@@H](C)O) [Compound 33] | 0.044 nM |
| H-HSQGTFTSDYSKYLDKARAEDFVKWLEST-OH [Compound 3] | 0.03 nM |
| H-HSQGTFTSDYSKYLD[Aib]ARAEEFVAWLEST-OH (SMILES CC(C)C[C@H](NC(=O)[C@H](Cc1c[nH]c2ccccc12)NC(=O)[C@H](C)NC(=O)[C@@H](NC(=O)[C@H](Cc1ccccc1)NC(=O)[C@H](CCC(=O)O)NC(=O)[C@H](CCC(=O)O)NC(=O)[C@H](C)NC(=O)[C@H](CCCNC(=N)N)NC(=O)[C@H](C)NC(=O)C(C)(C)NC(=O)[C@H](CC(=O)O)NC(=O)[C@H](CC(C)C)NC(=O)[C@H](Cc1ccc(O)cc1)NC(=O)[C@H](CCCCN)NC(=O)[C@H](CO)NC(=O)[C@H](Cc1ccc(O)cc1)NC(=O)[C@H](CC(=O)O)NC(=O)[C@H](CO)NC(=O)[C@@H](NC(=O)[C@H](Cc1ccccc1)NC(=O)[C@@H](NC(=O)CNC(=O)[C@H](CCC(N)=O)NC(=O)[C@H](CO)NC(=O)[C@@H](N)Cc1c[nH]cn1)[C@@H](C)O)[C@@H](C)O)C(C)C)C(=O)N[C@@H](CCC(=O)O)C(=O)N[C@@H](CO)C(=O)N[C@H](C(=O)O)[C@@H](C)O) [Compound 35] | 0.014 nM |

Further lines, results first:

| GCG-R EC50 in vitro [nM] (cAMP, AlphaScreen, HEK293 cells expressing human Glucagon-R) | Binder |
| --- | --- |
| 0.0035 nM | H-HS[Dab](Ac)GTFTSDYSKYLD[Aib]ARAEEFVKWLEST-NH2 (SMILES CC(=O)NCC[C@H](NC(=O)[C@H](CO)NC(=O)[C@@H](N)Cc1c[nH]cn1)C(=O)NCC(=O)N[C@H](C(=O)N[C@@H](Cc1ccccc1)C(=O)N[C@H](C(=O)N[C@@H](CO)C(=O)N[C@@H](CC(=O)O)C(=O)N[C@@H](Cc1ccc(O)cc1)C(=O)N[C@@H](CO)C(=O)N[C@@H](CCCCN)C(=O)N[C@@H](Cc1ccc(O)cc1)C(=O)N[C@@H](CC(C)C)C(=O)N[C@@H](CC(=O)O)C(=O)NC(C)(C)C(=O)N[C@@H](C)C(=O)N[C@@H](CCCNC(=N)N)C(=O)N[C@@H](C)C(=O)N[C@@H](CCC(=O)O)C(=O)N[C@@H](CCC(=O)O)C(=O)N[C@@H](Cc1ccccc1)C(=O)N[C@H](C(=O)N[C@@H](CCCCN)C(=O)N[C@@H](Cc1c[nH]c2ccccc12)C(=O)N[C@@H](CC(C)C)C(=O)N[C@@H](CCC(=O)O)C(=O)N[C@@H](CO)C(=O)N[C@H](C(N)=O)[C@@H](C)O)C(C)C)[C@@H](C)O)[C@@H](C)O) [Compound 40] |
| 0.094 nM | H-HSQGTFTSDYSKYLE[Aib]ARAEEFVKWLEST-OH (SMILES CC(C)C[C@H](NC(=O)[C@H](Cc1c[nH]c2ccccc12)NC(=O)[C@H](CCCCN)NC(=O)[C@@H](NC(=O)[C@H](Cc1ccccc1)NC(=O)[C@H](CCC(=O)O)NC(=O)[C@H](CCC(=O)O)NC(=O)[C@H](C)NC(=O)[C@H](CCCNC(=N)N)NC(=O)[C@H](C)NC(=O)C(C)(C)NC(=O)[C@H](CCC(=O)O)NC(=O)[C@H](CC(C)C)NC(=O)[C@H](Cc1ccc(O)cc1)NC(=O)[C@H](CCCCN)NC(=O)[C@H](CO)NC(=O)[C@H](Cc1ccc(O)cc1)NC(=O)[C@H](CC(=O)O)NC(=O)[C@H](CO)NC(=O)[C@@H](NC(=O)[C@H](Cc1ccccc1)NC(=O)[C@@H](NC(=O)CNC(=O)[C@H](CCC(N)=O)NC(=O)[C@H](CO)NC(=O)[C@@H](N)Cc1c[nH]cn1)[C@@H](C)O)[C@@H](C)O)C(C)C)C(=O)N[C@@H](CCC(=O)O)C(=O)N[C@@H](CO)C(=O)N[C@H](C(=O)O)[C@@H](C)O) [Compound 37] |
| 0.01 nM | H-HSQGTFTSDYSKYLD[Aib]ARAEEFVKWLEET-OH (SMILES CC(C)C[C@H](NC(=O)[C@H](Cc1c[nH]c2ccccc12)NC(=O)[C@H](CCCCN)NC(=O)[C@@H](NC(=O)[C@H](Cc1ccccc1)NC(=O)[C@H](CCC(=O)O)NC(=O)[C@H](CCC(=O)O)NC(=O)[C@H](C)NC(=O)[C@H](CCCNC(=N)N)NC(=O)[C@H](C)NC(=O)C(C)(C)NC(=O)[C@H](CC(=O)O)NC(=O)[C@H](CC(C)C)NC(=O)[C@H](Cc1ccc(O)cc1)NC(=O)[C@H](CCCCN)NC(=O)[C@H](CO)NC(=O)[C@H](Cc1ccc(O)cc1)NC(=O)[C@H](CC(=O)O)NC(=O)[C@H](CO)NC(=O)[C@@H](NC(=O)[C@H](Cc1ccccc1)NC(=O)[C@@H](NC(=O)CNC(=O)[C@H](CCC(N)=O)NC(=O)[C@H](CO)NC(=O)[C@@H](N)Cc1c[nH]cn1)[C@@H](C)O)[C@@H](C)O)C(C)C)C(=O)N[C@@H](CCC(=O)O)C(=O)N[C@@H](CCC(=O)O)C(=O)N[C@H](C(=O)O)[C@@H](C)O) [Compound 36] |
| 0.0047 nM | H-HSHGTFTSDYSKYLD[Aib]ARAEEFVKWLEST-NH2 (SMILES CC(C)C[C@H](NC(=O)[C@H](Cc1c[nH]c2ccccc12)NC(=O)[C@H](CCCCN)NC(=O)[C@@H](NC(=O)[C@H](Cc1ccccc1)NC(=O)[C@H](CCC(=O)O)NC(=O)[C@H](CCC(=O)O)NC(=O)[C@H](C)NC(=O)[C@H](CCCNC(=N)N)NC(=O)[C@H](C)NC(=O)C(C)(C)NC(=O)[C@H](CC(=O)O)NC(=O)[C@H](CC(C)C)NC(=O)[C@H](Cc1ccc(O)cc1)NC(=O)[C@H](CCCCN)NC(=O)[C@H](CO)NC(=O)[C@H](Cc1ccc(O)cc1)NC(=O)[C@H](CC(=O)O)NC(=O)[C@H](CO)NC(=O)[C@@H](NC(=O)[C@H](Cc1ccccc1)NC(=O)[C@@H](NC(=O)CNC(=O)[C@H](Cc1c[nH]cn1)NC(=O)[C@H](CO)NC(=O)[C@@H](N)Cc1c[nH]cn1)[C@@H](C)O)[C@@H](C)O)C(C)C)C(=O)N[C@@H](CCC(=O)O)C(=O)N[C@@H](CO)C(=O)N[C@H](C(N)=O)[C@@H](C)O) [Compound 38] |
| 0.0044 nM | H-HS[Dab](Ac)GTFTSDYSKYLD[Aib]ARAEEFVKWLEST-OH (SMILES CC(=O)NCC[C@H](NC(=O)[C@H](CO)NC(=O)[C@@H](N)Cc1c[nH]cn1)C(=O)NCC(=O)N[C@H](C(=O)N[C@@H](Cc1ccccc1)C(=O)N[C@H](C(=O)N[C@@H](CO)C(=O)N[C@@H](CC(=O)O)C(=O)N[C@@H](Cc1ccc(O)cc1)C(=O)N[C@@H](CO)C(=O)N[C@@H](CCCCN)C(=O)N[C@@H](Cc1ccc(O)cc1)C(=O)N[C@@H](CC(C)C)C(=O)N[C@@H](CC(=O)O)C(=O)NC(C)(C)C(=O)N[C@@H](C)C(=O)N[C@@H](CCCNC(=N)N)C(=O)N[C@@H](C)C(=O)N[C@@H](CCC(=O)O)C(=O)N[C@@H](CCC(=O)O)C(=O)N[C@@H](Cc1ccccc1)C(=O)N[C@H](C(=O)N[C@@H](CCCCN)C(=O)N[C@@H](Cc1c[nH]c2ccccc12)C(=O)N[C@@H](CC(C)C)C(=O)N[C@@H](CCC(=O)O)C(=O)N[C@@H](CO)C(=O)N[C@H](C(=O)O)[C@@H](C)O)C(C)C)[C@@H](C)O)[C@@H](C)O) [Compound 39] |
